How the values were obtained:
Experiment in all cases: UV-ligand exchange, anti-b2m ELISA; exchange yield grade (+ >10%, ++ >20%, +++ >50, ++++ >75%)
HLA-B*07:02 = biological target: T1, HLA-B*07:02 (human)
T1 construct: Peptide-receptive MHC monomer made by UV cleavage of a UV-sensitive peptide
From the text: (§1) Candidate peptides for T cell based therapies according to the present invention were further tested for their MHC binding capacity (affinity). The individual peptide-MHC complexes were produced by UV-ligand exchange, where a UV-sensitive peptide is cleaved upon UV-irradiation, and exchanged with the peptide of interest as analyzed. Only peptide candidates that can effectively bind and stabilize the peptide-receptive MHC molecules prevent dissociation of the MHC complexes. To determine the yield of the exchange reaction, an ELISA was performed based on the detection of the light chain (β2m) of stabilized MHC complexes. The assay was performed as generally described in Rodenko et al. (Rodenko et al., 2006).
(§2) 96 well MAXISorp plates (NUNC) were coated over night with 2 ug/ml streptavidin in PBS at room temperature, washed 4× and blocked for 1 h at 37° C. in 2% BSA containing blocking buffer. Refolded HLA-A*02:01/MLA-001 monomers served as standards, covering the range of 15-500 ng/ml. Peptide-MHC monomers of the UV-exchange reaction were diluted 100-fold in blocking buffer. Samples were incubated for 1 h at 37° C., washed four times, incubated with 2 ug/ml HRP conjugated anti-β2m for 1 h at 37° C., washed again and detected with TMB solution that is stopped with […]. Absorption was measured at 450 nm. Candidate peptides that show a high exchange yield (preferably higher than 50%, most preferred higher than 75%) are generally preferred for a generation and production of antibodies or fragments thereof, and/or T cell receptors or fragments thereof, as they show sufficient avidity to the MHC molecules and prevent dissociation of the MHC complexes.

HLA-A*01:01 = biological target: T2, HLA-A*01:01 (human)
T2 construct: Peptide-receptive MHC monomer made by UV cleavage of a UV-sensitive peptide
From the text: as §1, §2

HLA-A*24:02 = biological target: T3, HLA-A*24:02 (human)
T3 construct: Peptide-receptive MHC monomer made by UV cleavage of a UV-sensitive peptide
From the text: as §1, §2

| peptide exchange yield (HLA-B*07:02) [%] | peptide exchange yield (HLA-A*01:01) [%] | Binder | other results |
| --- | --- | --- | --- |
|  | 50 to 75 | VLDLSTNVY |  |
| 20 to 50 |  | VPDGVSKVL |  |
| 20 to 50 |  | RPAVGHSGL |  |
| 20 to 50 |  | SPSPGKDPTL |  |
|  | 50 to 75 | YAAYIIHAY |  |
|  | 20 to 50 | NSDLKYNAL |  |
|  | > 75 | VTDLEMPHY |  |
|  | 20 to 50 | SILGSDVRVPSY |  |
| 50 to 75 |  | RVPSYTLIL |  |
| 20 to 50 |  | SPLRGGSSL |  |
|  | > 75 | YSDLHAFYY |  |
|  | 50 to 75 | YSHAAGQGTGLY |  |
| 50 to 75 |  | SPGDKRLAA |  |
|  | 20 to 50 | RSPNNFLSY |  |
| 20 to 50 |  | RPASSLRP |  |
| 20 to 50 |  | VVHPRTLLL |  |
|  | 20 to 50 | TPVTEFSLNTY |  |
| 50 to 75 |  | SPMWHVQQL |  |
| 20 to 50 |  | VPERGEPEL |  |
| 50 to 75 |  | RPAPADSAL |  |
|  | 10 to 20 | SVTDLEMPHY |  |
| 20 to 50 |  | YPSEVEHMF |  |
|  | 50 to 75 | RSDPGGGGLAY |  |
| 50 to 75 |  | VPSLQRLML |  |
| 50 to 75 |  | TPIAKVSEL |  |
| 50 to 75 |  | SPIKVPLLL |  |
| 20 to 50 |  | YPLTGDTRL |  |
|  | 50 to 75 | VLDSHIHAY |  |

Second part, the binder before the results:

| Binder | peptide exchange yield (HLA-B*07:02) [%] | peptide exchange yield (HLA-A*01:01) [%] | other results |
| --- | --- | --- | --- |
| MPMISIPRV | 20 to 50 |  |  |
| FSDKELAAY |  | > 75 |  |
| IPTDKLLVI | 20 to 50 |  |  |
| HDPDVGSNSL | 20 to 50 |  |  |
| YFEEAANFL |  |  | peptide exchange yield (HLA-A*24:02): 20 to 50% |
| ATVGYFIFY |  | 20 to 50 |  |
| FASDLLHLY |  | 20 to 50 |  |
| LPALPQQLI | 50 to 75 |  |  |
| HPQVVILSL | 50 to 75 |  |  |
| FELPTGAGLQL | 20 to 50 |  |  |
| FPAHPSLLL | 20 to 50 |  |  |
| APAAVPSAPA | 50 to 75 |  |  |
| NPYEGRVEV | 20 to 50 |  |  |
| KPSSKALGTSL | 50 to 75 |  |  |
| VWAKILSAF |  |  | peptide exchange yield (HLA-A*24:02): 50 to 75% |
| IPEPSAQQL | 20 to 50 |  |  |
| LVLDYSKDYNHW |  |  | peptide exchange yield (HLA-A*24:02): 10 to 20% |
| ISTPSEVSTPL | 20 to 50 |  |  |

| Binder | peptide exchange yield (HLA-B*07:02) [%] | peptide exchange yield (HLA-A*01:01) [%] | other results |
| --- | --- | --- | --- |
| FPYPYAERL | 20 to 50 |  |  |
| HPIETLVDIF | 20 to 50 |  |  |
| LTDSFPLKV |  | 50 to 75 |  |
| KFLDSNIKF |  |  | peptide exchange yield (HLA-A*24:02): 50 to 75% |
| APKLFAVAF | 50 to 75 |  |  |
| ASSTDSASYY |  | 50 to 75 |  |
| MVPSAGQLALF | 20 to 50 |  |  |
| IPSRLLAIL | 50 to 75 |  |  |
| FPTEVTPHAF | 20 to 50 |  |  |
| LPDGSRVEL | 20 to 50 |  |  |
| ITDFNNIRY |  | 50 to 75 |  |
| FADKIHLAY |  | 50 to 75 |  |
| NFLPPIIARF |  |  | peptide exchange yield (HLA-A*24:02): > 75% |
| KPAHYPLIAL | 50 to 75 |  |  |
| APSGTRVVQVL | 20 to 50 |  |  |
| LITGDPKAAYDY |  | 20 to 50 |  |
| GPGTRLSL | 20 to 50 |  |  |
| FITAQNHGY |  | 20 to 50 |  |
